In PMC5034536, “Molecular insights into substrate recognition and catalytic mechanism of the chaperone and FKBP peptidyl-prolyl isomerase SlyD” (BMC Biology, 2016):
Like-named read-outs stand apart in the source and are kept apart here. No end group written: not given here.

Legend:
[1] = biological target: full-length SlyD from Thermus thermophilus (TtSlyDFL) (Thermus thermophilus)
[2] = biological target: full-length SlyD from Thermus thermophilus (TtSlyDFL) (Thermus thermophilus); remark: listed apart in the source

Binder	Kd [1] [µM]	dH [1] [kcal/mol]	stoichiometry N [1]	Kd [2] [µM]	dH [2] [kcal/mol]	stoichiometry N [2]
VGSNSYPHKYNNYEG-NH2 [T1 peptide]	158	-14.6	1.13			
SGLVPRGS-NH2 [SlpA linker peptide]	133	-0.4	1.44			
WNPKMKP-NH2 [S2-short8 peptide]				163	-5.1	1.29
